experiment: soluble on expression in E. coli; label from the status in PepcDB or PDB records

Sequence	soluble on expression in E. coli
MKLTLEEGTSLVGYVRNVIKQYLKGEEPDIQKYPDKFNNVFGVFVSLHTHPEHDLRGCIGIPEPTMSLIDAIKETSISAAVHDPRFQPLKHSELKNTIIEVSVLTPPEDVEVEDSMEYLEKLEVGRDGLIIEFGPYRGLLLPQVATEYNWDTKQFLSNLCLKAGLPTTAWIEYDVKIKSFQAQVFEELIPNGPVVEKSTYTGCLEHHHHHH	soluble
MRPSAIVLAGGKEAWAERFGVGSKALVPYRGRPMVEWVLEALYAAGLSPVYVGENPGLVPAPALTLPDRGGLLENLEQALEHVEGRVLVATGDIPHLTEEAVRFVLDKAPEAALVYPIVPKEAVEARFPRTKRTYARLREGTFTGGNLLLLDKSLFRKALPLARRVVALRKRPLALARLVGWDVLLKLLLGRLSLAEVEARAQRILGVEARALVTPYPEVGVDVDREEDLVS	soluble
MKRSAINDILGHTRQFFSQHDVHLPPFASFSPAQWQQLDTAAWEEVFDLKLGWDVTAFGRNNFAAHGLTLFTLRNGSAKGMPYVKCYAEKIMHVRDAQVTPMHFHWRKREDIINRGGGNLIVELWNADSNEQTADSDITVVIDGCRQKHTAGSQLRLSPGESICLPPGLYHSFWAEAGFGDVLVGEVSSVNDDDHDNHFLQPLDRYNLIDEDEPAQLVLCNEYRQFR	soluble
MAEASSANLGSGCEEKRHEGSSSESVPPGTTISRVKLLDTMVDTFLQKLVAAGSYQRFTDCYKCFYQLQPAMTQRIYDKFIAQLQTSIREEISDIKEEGNLEAVLNALDKIVEEGKVRKEPAWCEAQRCRVQQRCSLCVQAGGQRGSEETQALPVSMAGSPSPLPGSPGAQEGGV	not soluble
MKKHIIIKTIPKKEEIISRDLCDCIYYYDNSVICKPIGPSKVYVSTSLENLEKCLQLHYFKKLVKNIEIFDEVHNSKPNCDKCLIVEIGGVYFVRRVNGVPR	soluble
MTSLYLASGSPRRQELLAQLGVTFERIVTGIEEQRQPQESAQQYVVRLAREKARAGVAQTAKDLPVLGADTIVILNGEVLEKPRDAEHAAQMLRKLSGQTHQVMTAVALADSQHILDCLVVTDVTFRTLTDEDIAGYVASDEPLDKAGAYGIQGLGGCFVRKINGSYHAVVGLPLVETYELLSNFNALREKRDKHDG	soluble
MGSDKIHHHHHHMEKKPLYHFMPGTMTWSFGTPGCNFKCANRQNWAISQMGQDKSIPLATPEAIVRNAMNTGCSSISCTYTEPTIFAEYALDVMQLARQTGLRNIWISNGYLSPLCLKTVTPWLDAINVGLQSMDDAFYRRVCGARLDPVLDSLRLIQESGMHLEITTLVIPGHSSDPAMLERLAGFIAHDLGTGVPWHIIPFYPEISWKMQDTPPTPAESIEQAFEIGRKAGLSFIYAGNAHSDTFCDQCSARLVGRKASPFGDYRIERFDTGGRCPVCHAPSPMRD	not soluble
SGCIQSITCKARIRRENIVVYDVCATIDQCPTRIEETSPIVLRYKTPYFKASARVVMPPIPRHETWVVGWIQACNQMEFFNTYSDLGMSSWELPDLREGRVKAISDSDGVSYPWYGNTTETVTLVGPTNKISRFSVSMNDNFYPSVTWAVPVSDSNVPLLTRIKRDQSFTTWLVAMNTTTKEKIILQTIKWRMRVDIEVDPLQLLGQRARLVGRTQQEQPRILSRMEPIPPNALVKPNANDAQVLMWRPKRGPPLVVIPPK	soluble
MTTEIKKLDPDTAIDIAYDIFLEMAGENLDPADILLFNLQFEERGGVEFVETADDWEEEIGVLIDPEEYAEVWVGLVNEQDEMDDVFAKFLISHREEDREFHVIWKK	soluble
MFPERLRALRRGQKMTLAQLAAALNQMPTADKTTRQNTAAQIGNWERDLRTPSYLEVRKLAEFFNVTTDYLSGKSDQEEYDLGRIFLSGKPLTFNQEQLSSEDRYELFQLMDGYLHGRQHRVSTDATGQEELDLHFDD	not soluble
MGSDKIHHHHHHLNQERFDYRTGILASPSEVDAAEWNALLAQQPQPTPFLRHEFLSALHATRCAVADTGWAPQFVTLTDPRTDKLVAAAPVYLKGHSYGEYVFDWAWADAYKRNGLPYYPKLLCAVPFTPVQGNRLLSADTHALRHLAATLMAFAEQADVSSLHVLFPTETEANALTEMGMMQREGVQFHWLNDGYRDFDDFLSTLEQKKRKNIRAERRKVHEAGVTMRRIRGEDIQDADWRFFSKCYRQTYREHFSSPYLNLDFFRMIGESMPENLLLVIAEYEGKPIASSLVVYQRDAKTGGTLYGRYWGALEHVPCLHFETAYYQPLEFCIEEKLGAFEGGAQGEHKMARGFLPTVTRSAHWLAHPAFADAVGHFLDNEKNSIHAYVDELREHNPFKG	not soluble
MRIKLIIVEGKTDESFFKVLLEKLYGFREAKKLTPEFPIGKWGFRIGEHPLVLEKDNIALVIIHAEGKQRIPKVLKSVLDSVKLGLLNVEEVYVVRDVDEGNDVFEWVLSFLREREVRVDNGAIVTEGVKIYPYGMGNLTLNEPFVKEKKELELSLAYLAKLDGILEKYRGSMRALSQDKGDKLTPKDVMHILSIANDYTGDCLSGLYEKYIGIMIHRNRELLIRFLSEVNLLPLLERMVG	soluble
MGSDKIHHHHHHMRYHIALVGRRNSGKSSLLNMLAGQQISIVSDIKGTTTDAVAKAYELQPLGPVTFYDTAGIDDEGTLGAMRVSATRRVLFRSDMALLVVDEQGLCPSDMALIDEIRQLQMPILMVFNKADICTPKAEDIAFCQNQSLPFIVVSAATGLAGKQLKQLMVELAPAEYKQEPLLAGDLYQAGDVILCVVPIDMAAPKGRLILPQVQILREALDRSAIAMVVKETELAQALSVVTPKLVISDAQAIKQVAAIVPDAVPLTTFSTLFARFKGDLAALATGADALDTLQDGDKVLISEACSHNVQEDDIGRVKLPRWINSYTGKQLEFVVTSGHDFPNDLEQYALVIHCGACMFNRNEMLRRIRECQRRQVPITNYGVAISKLQGVLPRVLTPFNRNPQQ	not soluble
MISSNSSSTSLNVETDYPTNGKKPLKEGSVQLTSLSTLLSHHRYFFLYHETLIISKQKGACSYKLKEKLRLEKVWIASSNTADSFLIGWPFTNYLVHFRNTEEKDEWFELLSCCVQQCLRPLFTTISMEINVRGRKQTIRRRVDNGKKSGEIVVDTAGDLGLPHTSYQLTLSFGDNSHRQLQGPENVYVAIMSEIERQGTRLSESQKQALDTCPIANCRLILSTIKSTSGPSAKQLVNSIKKKVLTRTDSRSIFGKGLNGPTPPQPIMTIVDHLRMDGFDAEGIFRKSPKQSTFKELKCELDKGVVPDFHKYNTHVLASILKEYLRSIPGKILLSGNYELWMREIADEPNTEKKVSCCRALLSHLPTSHSILLANVLKLLNKISNSPSSKMNASSLSVCLAPSFLESPDPMEGGKKIPPLIEFLISHAAQVMPGFSTDNVFAIMTSPMVDHNANMVCSPAPSSSHSDDGGSSQKTPIIEELNDADDATSQSSLAESDLPDEPRGTSAHLETISEISEPPTNDERLVFSSSEDEDDDDEDELRVYRPKSSTSTSSCFARTSFVSETLKTSADDGDKGLNKETPRSPCLKRIHFQRTEAQHRNKEGNIKLDFEALKFHRPSVRKSSLEEVARKNSAEFFHHSREPSDAAVTPTPPKNGSTMRKESREEATQTADCGLPHISSNDDSDSRFPAFKSSSVAMLTEPYKSSSSSSSSTSSIPSDPAPRPYFLKEEYTSLANKPTVQVAPFSQEPSLKTINDRLNALRQNSILAQEVPQEPVMTSSRLRSEATKSLTNSPIMPRSYGGSLMQKDREEHSFVADDFYKASSRKPELQRSSSQRGLTSMNNNNNSTKQIYGARPSSLKTPRRFAGAGGVEACVGMDPLEINWSVSQLKTLFQDTKAPSIDTTYNMN	not soluble
FDAIAGSISDAVVTIDADSEVVYANDEAVELTGYDRKELVGDDFAKVIPEHLRSAHFEGLDRYLRTGNRNVDWDYLELPLVTAAGDQLTVAVSFGDFERNGQWFCTGVLRDIS	not soluble
MSAFTPASEVLLRHSDDFEQSRILFAGDLQDDLPARLDTAASRAHTQQFHHWQVLSRQMGDNARFSLVATADDVADCDTLIYYWPKNKPEAQFQLMNLLSLLPVGTDIFVVGENRSGVRSAEQMLADYAPLNKVDSARRCGLYFGRLEKQPVFDAEKFWGEYSVDGLTVKTLPGVFSRDGLDVGSQLLLSTLTPHTKGKVLDVGCGAGVLSVAFARHSPKIRLTLCDVSAPAVEASRATLAANGVEGEVFASNVFSEVKGRFDMIISNPPFHDGMQTSLDAAQTLIRGAVRHLNSGGELRIVANAFLPYPDVLDETFGFHEVIAQTGRFKVYRAIMTRQAKKG	soluble
MSTKADMAIAFHDKGYNCAQAVACSFCQEFGVAEEEMFRIAEGFGLGMGMMEVCGALSGMMMIIGLENSVGEPEKGRLTKGDTYRKVKEYVKKFQEQNGSYLCRELKGVETGKVLRSCPDCIRDAVALTEEYLAAQKQN	not soluble
MDDITDGLRYRISNVIHVSPELTYDGRIMSAGKLLKLMDDLGGIICLRYLDHNSSNLYDNSFNAVVTVAVKGLAFYSPIRLNDIILIRAGLVYVGNTSADILINVVREDLNGAKEHVATAYFTYVRVDKDGKPIKIP	soluble
MSLNETKQFIKRHLFSARWLVRNLQQRYSTIERIAEFLAVNQYEFFTQPDGQLKPLTMKTIADALELHESTIARTVSNKYINSPKGIFSLRSFFTTKYTSEEGEDLSAKTVKEAILEIISGENKLRPFSDEKISEFLKSKGITCARRTVAKYRQALDLGNTQQRKKFHQSEGHHHHHH	soluble
MCSLSAIMLLPTKLKPAYSDKRSNSSSSSSLFFNNRRSKKKNQSIVPVARLFGPAIFESSKLKVLFLGVDEKKHPSTLPRTYTLTHSDITAKLTLAISQSINNSQLQGWANRLYRDEVVAEWKKVKGKMSLHVHCHISGGHFLLDLFAKFRYFIFCKELPVVLKAFVHGDGNLLNNYPELQEALVWVYFHSNVNEFNKVECWGPLWEAVSPDGHKTETLPEARCADECSCCFPTVSSIPWSHSLSNEGVNGYSGTQTEGIATPNPEKL	soluble
MGSDKIHHHHHHMGAGELLQDWRVHALRIEDEVSRVVIGQPQTIRLITVALFARGHVLLEGGVGVGKTTVLRAFARVVGGEFERVEGTIDLMPGDLVYHTYVDAEGRPRIDPGPLLRHGERLTTFFFNEINRARPQVQSLLLRAMAERSVWAFDREYRFPHMTVFADRNKVEKEETFELASAARDRFLFELGMPTPTEPDVRRSLVFDAAFHDVDSLLARLPPAIVQWEQLNQVGAAIQESVQSSETIERYVLDIWQATETPQRFGIALDGVDMDRLILAGASPRGMSALLRAARVVAWLAGRSHLVPEDIHAVLMPALGHRVFFTPIYELRRQELAEALMTQIMNRLAVP	not soluble
SLSSLDAVLSQDLIVADGPAVEVGDSLEVAYTGWLFQNHVLGQVFDSTANKDKLLRLKLGSGKVIKGWEDGMLGMKKGGKRLLIVPPACAVGSEGVIGWTQATDSILVFEVEVRRVKFAR	soluble
MGSDKIHHHHHHMKLIINADDFGFTRAINYGIIDAHNLGVLTSTTLMVTMPAFEHAVDLSKKTPTLGIGLHLNLTLGKPLTNGATLVNEDGELIKPKFTTPEYPYNEEEVYQEFKAQYHRFTEFMKKKPSHLDSHLFSTDIYPVVTSAAKRLAEEIGIPLRNHDTKGFEHVEFMWEKPLEIPYGEYDNLDYIYDNAASILCYDYVEIMTHPGYLDTFILENSTFSTPRANELESLISPRMRQFLNENNVELISYHDIPKK	not soluble
MGSIEEVLLEERLIGYLDPGAEKVLARINRPSKIVSTSSCTGRITLIEGEAHWLRNGARVAYKTHHPISRSEVERVLRRGFTNLWLKVTGPILHLRVEGWQCAKSLLEAARRNGFKHSGVISIAEDSRLVIEIMSSQSMSVPLVMEGARIVGDDALDMLIEKANTILVESRIGLDTFSREVEELVECFAAALEHHHHHH	soluble
MEQQSYTIIDETGAHARPATMLVQTASKFDSDIQLEYNGKKVNLKSIMGVMSLGVGKDAEITIYADGSDEADAIQAITDVLSKEGLTE	soluble

Reference: the DeepSol protein solubility set
